Measured values published in PMC3058308 (Nature, 2011).

What was measured:
[1] = molecular target: β2AR-T4L; type: binding, human
[2] = molecular target: β2 adrenergic receptor truncated at position 365, reconstituted in HDL particles (Homo sapiens (Human)., UniProt P07550); experiment: radioligand binding
[3] = molecular target: mBB-β2AR/HDL (Homo sapiens, UniProt P07550); experiment: Bimane fluorescence spectroscopy on mBB-β2AR reconstituted in HDL particles; type: biochemical

Ki ([1]; read-out: Ki in the presence of Nb80, β2AR-T4L/HDL, Nb80 1 μM, 0.6 nM [3H]-DHA)	increase of affinity in the presence of Nb80 ([1]; β2AR-T4L/HDL with Nb80 versus without)	binding result [2]	effect on bimane fluorescence of β2AR bound to inverse agonist ICI-118,551 ([3]; 300 nM Nb80, 1 μM ICI)	effect on bimane fluorescence in the presence of isoproterenol ([3]; 300 nM Nb80, 10 μM isoproterenol)	Molecule
0.56 nM	60 fold	–	–	–	isoproterenol
–	–	binds	not observed	increased	Nanobody-80 (VHH) VHH: QVQLQESGGGLVQAGGSLRLSCAASGSIFSINTMGWYRQAPGKQRELVAAIHSGGSTNYANSVKGRFTISRDNAANTVYLQMNSLKPEDTAVYYCNVKDYGAVLYEYDYWGQGTQVTVSS
